B1: CPEB3 Ribozyme (parent)
chain: UAACAGGGGGCCACAGCAGAAGCGUUCACGUCGCAGCCCCUGUCAGAUUCUGGUGAAUCUGCGAAUUCUGCUGUAUAUCUC

Variants of: B1
Assay: self-cleavage, relative activity (ratio to wild type); higher = more cleavage; in vitro, sequencing
Method in brief: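 Libraries of CPEB3 self-cleaving ribozyme mutants came from rounds of error-prone PCR and carried barcodes, which DNA sequencing matched to variants. In vitro transcription used T7 RNA polymerase at 37°C for 5 hours, with a further 15 min in DNase I before EDTA stopped the reaction; the ribozymes cleaved during both steps. The RNA was reverse transcribed with template switching and sequenced on Illumina. Relative activity is the cleaved/total read fraction of a variant divided by that of the unmutated ribozyme, averaged over three batches with at least 5 reads.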

Variant | self-cleavage
U26A C71A | 0.2
U26A C71U | 0.24
U25G U60A | 0.19
U25G U60C | 0.24
U26A G36U | 0.39
U25G U48C | 0.36
U25C U49C | 0.21
U25C U49A | 0.3
U25G A47U | 0.32
U26A C29G | 0.3
U25C U54G | 0.31
U25C U54A | 0.28
U25C U54C | 0.27
U25G C32A | 0.26
U25G G70C | 0.33
U26A C50U | 0.47
U26A C50A | 0.76
U26A A35G | 1.29
U26A A35U | 0.38
U26A A35C | 0.65
U26A G61A | 0.73
U26A G61C | 0.27
U26A A28G | 0.38
U26A A28U | 0.61

Variant | self-cleavage
U25G U66C | 0.23
U26A A64U | 0.27
U26A A64G | 0.61
U26A A64C | 0.5
U26A C44G | 0.94
U26A C44U | 0.46
U26A G55U | 0.77
U25C U66G | 0.69
U25C U66A | 0.35
U25C U66C | 0.27
U25C U48C | 0.26
U25C U48G | 0.39
U25C U48A | 0.31
U25G U26C | 0.33
U25G A35U | 0.39
U25G A35G | 0.9
U26A C81G | 1.1
U26A C62G | 0.2
U26A C62A | 0.25
U26A C62U | 0.21
U25G C71G | 0.16
U25G G52A | 0.15
U25G A77U | 0.25
U26A G53U | 1.04

Variant | self-cleavage
U26A G53A | 1
U25G U41G | 0.43
U25G U41A | 0.19
U25G U41C | 0.4
U25G A65G | 0.26
U25G A65U | 0.07
U25C U74A | 0.42
U25C U74C | 0.35
U25G U76C | 0.52
U25G A45G | 0.29
U26A G30U | 0.19
U26A G30C | 0.24
U25G C59U | 0.21
U26A C38A | 0.27
U26A C38U | 0.51
U26A G63A | 0.74
U26A G63U | 0.87
U26A C34G | 0.41
U26A C34U | 0.29
U25G U78A | 0.12
U25G U78C | 0.15
U25G U43A | 0.58
U25G U43C | 0.34
U26A A75U | 0.9

Variant | self-cleavage
U26A A75G | 0.69
U26A C40U | 0.59
U26A C40G | 0.17
U26A C40A | 0.25
U25G U80C | 0.37
U25G U58A | 0.14
U25G U58C | 0.2
U25C U67A | 0.25
U25C U67G | 0.11
U25C U67C | 0.2
U26A C32G | 0.13
U26A C32A | 0.16
U25C U78C | 0.24
U25C U78A | 0.25
U25C U78G | 0.22
U26A A57G | 0.78
U26A A57U | 0.62
U25G C34U | 0.15
U25G A64U | 0.23
U25G A64G | 0.24
U26A A65G | 0.38
U26A A65U | 0.35
U25C U60G | 0.13
U25C U60C | 0.23

Variant | self-cleavage
U25C U60A | 0.24
U25C U76G | 0.45
U25C U76A | 0.33
U25C U76C | 0.3
U25C U58C | 0.26
U25C U58A | 0.29
U25C U58G | 0.33
U26A G42A | 0.29
U25G U54A | 0.49
U25G U54C | 0.43
U25G G73A | 0.51
U25G U31C | 0.19
U25G U31A | 0.23
U25C U80A | 0.28
U25C U80C | 0.35
U26A C37U | 0.5
U26A C37G | 0.62
U25G U67A | 0.22
U25G U67G | 0.19
U26A A47U | 0.58
U26A A47G | 0.84
U26A C39U | 0.56
U25G U72A | 0.21
U25G U72C | 0.26

Variant | self-cleavage
U25G A56G | 0.4
U25G U51A | 0.3
U25G U51C | 0.4
U26A G33A | 0.17
U26A G33U | 0.1
U26A G52A | 1.06
U26A G52C | 1
U26A G52U | 1.08
U25G A75G | 0.29
U25G | 0.31
U25C U51C | 0.26
U25C U51A | 0.27
U25C U51G | 0.12
U25G C39U | 0.3
U25G C37U | 0.09
U26A | 0.89
U25G A28G | 0.37
U25G A28U | 0.31
U26A A56G | 0.68
U26A A56U | 0.4
U26A A56C | 0.49
U25G U49C | 0.45
U25G U49A | 0.26
U26A C27A | 0.31

Variant | self-cleavage
U26A C27G | 0.12
U25G C50U | 0.14
U25C U69G | 0.21
U25C U69A | 0.22
U25C U69C | 0.22
U26A C79A | 1.07
U26A C79U | 1.05
U25G U69A | 0.15
U25G U69C | 0.24
U26A C68A | 0.31
U26A C68U | 0.79
U25C U72G | 0.26
U25C U72C | 0.28
U25C U72A | 0.22
U25G C27U | 0.39
U26A A45U | 0.42
U26A A45C | 0.21
U26A A45G | 0.69
U25G U74G | 0.37
U25G U74C | 0.52
U25G A57G | 0.16
U26A A77G | 0.91
U26A A77U | 1.03

Source: the RNAGym collection of RNA variant scans (doi:10.1093/nar/gkz1192)
